Here are results for three molecules from paper PMC7954794, “Protein context shapes the specificity of SH3 domain-mediated interactions in vivo” (Nature Communications, 2021).

Holding throughout (type): cell-based, Saccharomyces cerevisiae
The subject of one test is Abp1 (1xFLAG). Briefly: Western blot expression level of Abp1 SH3-swapped baits (Fig. S2A-B). Also on record: Flag (2 bands): unit not given here. As to conditions: sheet FigS2A-B; for Ratio Swap/WT Flag: Flag signal relative to Abp1 WT (Abp1-1 to Abp1-4 = 1); for Flag (2 bands): Western blot Flag signal (2 bands), Abp1 WT, SH3-deleted or SH3-swapped. The method, then:
Precultures of yeast cells expressing baits fused with the DHFR F[1,2]-FLAG were grown overnight at 30 °C with agitation in synthetic complete medium. The next day, cells were expanded in synthetic complete medium to reach their exponential phase (OD600 of around 1.0), pelleted, and frozen at −80 °C. The equivalent of fifty OD600 of cells was resuspended in ice-cold yeast lysis buffer (10 mM Tris-HCl pH 7.4, 150 mM NaCl, 0.5 mM EDTA (Millipore Sigma), 1% Triton X-100 (Millipore Sigma), and one cOmplete Mini Protease Inhibitor Cocktail (Millipore Sigma) per 10 mL) with […] glass beads (Millipore Sigma) and disrupted at 4 °C by 10 cycles of 2 min vortexing and 2 min cooldown. The equivalent of […] of lysed cells was used for the immunoprecipitation of the bait proteins using FLAG-M2 agarose beads (Millipore Sigma). The beads were incubated with the cell lysates for 120 min at 4 °C with a slow rotation, followed by three washes with the yeast lysis buffer.
Protein extracts and affinity-purified baits from yeast and human lysed cells were migrated on 10% polyacrylamide gels. The separated proteins were then transferred to nitrocellulose membranes. Validation of correct protein loading was done with ponceau staining of the membranes. Before the primary antibody incubations, membranes were blocked in 5% milk. Protein signals were detected on an Amersham Imager 600RGB (GE Healthcare) following the incubation of the membranes with the appropriate HRP-conjugated secondary antibodies and the Clarity Western ECL Substrate (Bio-Rad). The antibodies used in this study are M2-HRP (A8592, Sigma, 1/50,000), rabbit anti-FLAG (F7425, Sigma, 1/1000), PAK (SC-881, Santa Cruz, 1/200), p130cas/BCAR1 (SC-860, Santa Cruz, 1/200), actin (Cell Signaling Technology, 1/2000), anti-mouse HRP (Cell Signaling Technology, 1/10,000) and anti-rabbit HRP (Cell Signaling Technology, 1/10,000). The quantification of the WB signals was performed with the Amersham Imager 600 analysis software (GE Healthcare).
(In general: Immunoblotting shows a protein as a band on a membrane.)

The next test has as its system Abp1 PPIs. Kind of test: DHFR-PCA of Abp1 SH3-swapped baits (Fig. 2B-D, S2C, S2F). As to conditions: number of interactions of Abp1 carrying the named SH3; sheet FigS2A-B. The text has this: Having determined that multiple PPIs require SH3s, we asked whether the latter establish PPI specificity independently from their host proteins by swapping domains (Fig. 2A). Using the second round of genome editing, we individually replaced Abp1 SH3 with the 27 yeast SH3s and 3 human Abp1 orthologs’ SH3s (CTTN, HCLS1, and DBNL, Fig. 2B). The reintroduction of its own SH3 (Abp1SH3 in Abp1) reconstitutes almost perfectly Abp1’s interaction profile (Kendall’s τ = 0.93, Fig. 2B). […] No homologous SH3 domain fully re-establishes the normal Abp1 PPI profile (Fig. 2B and Supplementary Fig. 2C). However, we observe a significant correlation (cophenetic correlation = 0.20, p value = 0.005, Fig. 2C) between the similarity of PPI profiles (Fig. 2B) and the sequence similarity of the SH3s. […] Nonetheless, a subset of SH3-dependent PPIs is only observed with the endogenous domain. For instance, Hua2 and App1, both well-characterized partners of Abp1[14],[18],[19], are only detected when Abp1 contains its own SH3 (WT or swapped via editing). A given SH3 may therefore not be fully replaceable with other paralogous or orthologous domains. This pattern is confirmed by cellular growth phenotypic analyses (Supplementary Fig. 2D, E). PPIs, SH3 sequence similarity, and growth profiles under stress conditions are correlated (Supplementary Fig. 2D, E). This relationship is particularly clear when analyzing growth on media supplemented with hygromycin.
The stuffing of YSC84 SH3 rendered the strain sterile and was therefore not used for this study as the assays require crosses. For genes containing two SH3s (BZZ1 and BEM1), a combination of this first stuffer with a second one ([…]) coding for a highly similar linker ([…]) was used, which allowed targeting each SH3 position independently. The two N-terminal domains of SLA1, which are separated by six nucleotides, were stuffed by a single stuffer. Cells containing pCAS were selected via the G418 resistance cassette from the plasmid on YPD plates (YPD + NAT 100 μg/ml (DHFR F[1,2] selection) + G418 200 µg/mL (Bioshop Canada)). Colonies were randomly selected and grown in YPD media without G418 to allow plasmid loss. The correct insertion of the stuffer was validated by PCR and Sanger sequencing. The SH3-swapped, -shuffled, and -mutated strains were constructed following a second CRISPR–Cas9 editing step with the same procedures. The stuffer sequences were targeted by specific gRNAs (one gRNA per stuffer) and replaced by PCR amplified specific SH3 (with 40 bp homology arms) or libraries of mutated SH3 domains for Deep Mutational Scanning (DMS) with 78 bp flanking homology regions. Validation of the SH3 domain insertions was done as we previously described except for DMS libraries (see below).
The overall DHFR-PCA pipeline is based on Tarassov et al.[43] and the procedures have also been published as a visualized protocol. The screens were performed with robotically manipulated pin tools (BM5-SC1, S&P Robotics Inc.). First, the preys were cherry-picked from 96-well plates to omnitrays in a 384 format on YPD + HPH solid media. Plates were then combined into the 1536 format on YPD + HPH. The array was constituted of 575 preys previously shown to interact physically with at least one SH3-containing protein as reported in BioGRID V3.4.16 along with 40 negative controls. The prey array comprised a border of control strains of two rows and two columns corresponding to the PPI between LSM8-DHFR F[1,2] and CDC39-DHFR F[3]. This double border was used to remove border effects. Preys are present in duplicate at a randomized position in the 1536 array (except for YAL041W which is present four times per array). Baits were crossed with two prey plates, resulting in four independent bait–prey tests for each PPI. Baits were grown in liquid YPD + NAT and then transferred on solid YPD + NAT omnitrays. They were then replicated on YPD + NAT omnitrays in 1536 array format. […]

The test system of a further test is BEM1-2. Kind of test: DHFR-PCA on solid medium, bait BEM1-2 (Fig. 1B). As to conditions: bait BEM1-2, label = prey. The text has this: (§1) Supplement 41467_2021_21873_MOESM8_ESM.xlsx, sheet "Fig1B" | column: medsize; medrep; Ratio; Score
In a further test the test system is BEM1-1. Kind of test: DHFR-PCA on solid medium, bait BEM1-1 (Fig. 1B). As to conditions: bait BEM1-1, label = prey.
Description: as §1

In another test the test system is ABP1. Kind of test: DHFR-PCA on solid medium, bait ABP1 (Fig. 1B). As to conditions: bait ABP1, label = prey.
Description: as §1

[1] abbreviates: only significant differences showed, PPIs completely lost have a ratio of 0.1 and the gained PPIs 2.5.

B1: Boi2 (protein, UniProt P39969 1-1040, looked up)
BEM1-interacting protein 2: MSNDREVPTLSQLNTTVSRDKDVSDTLSPDFDSKGSATGRDGGNFPMYIAINEYFKRMEDELDMKPGDKIKVITDDEEYKDGWYFGRNLRTNEEGLYPVVFTQKITVEKAPTLMRAKSTKRIYSPLTNEDPLLSSTFISENDSNSELPTPQPIETAASISRTANGKIERNLSLKNTMSDIDNALLEFKDDSIGPPDRFINSGRDEEHSITHETILSATDGLDVVESNSKPTTSSSTGFLNGDLENQATLINGIDTTKLNPVEAEFWSPEEITAYFIMEGYDVQSASRFQKHKISGKILLELELVHLKELDINSFGTRFEIFKEIEKIKEAIRTNGRSLNRASKTNNANIYNQLMPPANVDQRASYRGHVRKTSQSLEDLPSQQNFIPTPRNTRNSSASKHRPKSLVFDSQEANANIAPDVQIPQVVEEMAGNENLFVSPRRAPKPPSYPSPAQPPKSPLLNNTRTSPSPAQLYSWQSPTLSFSGPKRTSYIDQYSSSDSNFNSRSALPKNNQGGGKALSPIPSPTRNSVRNEDSEGKLTSSSKRNSVPYYGYAPESSSDRKSSCSSHEEEQFQETMNTFERPTSSIYADGSTIASISNDKLAHEKEGKKKPTRHSSSLSSKSKSDSRRNSSLKRSSSASRTSSFKKSSFMLSPFRQQFTDNAARSSSPEENPITSMPSEKNSSPIVDKKSSKKSRSKRRSVSAKEAEIFTETVKDDKNKRSASEAIKGETLKGKSLRQMTARPVAKKKQTSAFIEGLRSISVKEAMKDADFSGWMSKKGSGAMSTWKTRFFTLHGTRLSYFSSTTDTRERGLIDITAHRVVPAKEDDKLVSLYAASTGKGRYCFKLLPPQPGSKKGLTFTQPRTHYFAVDNKEEMRGWMAALIKTTIDIDTSVPIISSYTTPTVSLSKAQEMLAEAREETKLREQQMLENEEDEDQFLWDQQQLQQQQHDNNQGQADRTISASTQRTSDEDNTISTPNLSSANNTTIGSNGFSSPFLLASGLLSPGVARNSSMRGTEKKGKFSTEEDYFGDNSKHKTDKI
On to B1, for which, in the test with Abp1 (1xFLAG), the “Ratio Swap/WT Flag” value is 0.9819 and the “Flag (2 bands)” value was determined as 95048. In the test with Abp1 PPIs, the “Interactions in Abp1” value was 62.

B2: YPR055W (protein, UniProt P32855 1-1065, looked up)
Exocyst complex component SEC8: MDYLKPAQKGRRRGLSINSLSETQQSAMNSSLDHLQNDLNRINLQWNRILSDNTNPLELALAFLDDTSVGLGHRYEEFNQLKSQIGSHLQDVVNEHSQVFNTNVASYGKAVSSIMQAQEQTLNLKNCLKEANEKITTDKGSLQELNDNNLKYTKMIDVLVNIEELLQIPEKIEENIRKENFHQVQILLERGFILMNNKSLKTVEILKPINQQLELQEHLLFNNLIEEIHDIMYSKSNKTNFTRVTNNDIFKIISISHNGFTSLENYLYNIVNIDIMEHSKTINKNLEQFIHDQSLNKGNIMLQENAATQAPLAPSRNQENEGFNRIGFLLKTINNINKLPVAFNIITERAKEEIHNIIVKSTESIRSKHPSLLKMATSLKNDNHFGLPVQDILSIILRECFWEIFLKLLYAIQCHRAIFEMSNILQPTSSAKPAFKFNKIWGKLLDEIELLLVRYINDPELISSNNGSIKPINGATNNAPTLPKRKNPKIFSLEYNIEDNSSVKDQAFELKALLKDIFPGFSVSSNMDLDSIYVKDESFEQDEPLVPPSVFNMKVILDPFLLFTQSTSTIVPSVLTQNTISSLTFFDDYMNKSFLPKIQMTMDYLFTVEVESNNPYALELSDENHNIFKTALDFQRLFYNLLNVFNTANTFREKISYCILDLLNHFYNYYLGLFNSLIGTSDRHLTRKIITAWLQNGILMDQEQKILNGDETLFHEESIELFKEIPHFYQAGKGLSKSDLFNNLTLDTILQFSASVLWILNWLPGLKKAINIDEVSQEPMLDADRLRSSWTFSESMDLNYSNPSSSPNSLGNLKILLDDKASKKFDETIDGFKTLKFKLITILRFNIRALCIYDIGSFFQNTKIWNMDVGSIELDQNIASLISELRRTESKLKQQLPEKEKNSIFIGLDIVNNYALIKGAKSIKVLNHNGIKKMLRNVNVLQHAYRNLSSEPSKINMNVTMNFYSLCGSSEAELFEYIKDNELPHCSVEDLKTILRLQFSEEMHRQLKRQSTSSTKGSIKPSNKRYTEALEKLSNLEKEQSKEGARTKIGKLKSKLNAVHTANEK
Turning to B2, the “medrep (log2 median colony size normalized to plate background, PCA score)” value is reported as 1.322 with BEM1-2 (2-8 replicates), 1.322 with BEM1-1 (2-8 replicates) and 1.475 with ABP1 (2-4 replicates). Besides, the “Ratio (SH3-deleted/WT medrep)” value in the test on BEM1-2 (setting [1]), with BEM1-1 (setting [1]) and in the test on ABP1 (setting [1]) was 0.1 throughout.

B3: Abp1-2 (protein, UniProt P15891 2-592, looked up)
Actin-binding protein: ALEPIDYTTHSREIDAEYLKIVRGSDPDTTWLIISPNAKKEYEPESTGSSFHDFLQLFDETKVQYGLARVSPPGSDVEKIIIIGWCPDSAPLKTRASFAANFAAVANNLFKGYHVQVTARDEDDLDENELLMKISNAAGARYSIQTSSKQQGKASTPPVKKSFTPSKSPAPVSKKEPVKTPSPAPAAKISSRVNDNNDDDDWNEPELKERDFDQAPLKPNQSSYKPIGKIDLQKVIAEEKAKEDPRLVQKPTAAGSKIDPSSDIANLKNESKLKRDSEFNSFLGTTKPPSMTESSLKNDDDKVIKGFRNEKSPAQLWAERKAKQNSGNAETKAEAPKPEVPEDEPEGEPDVKDLKSKFEGLAASEKEEEEMENKFAPPPKKSEPTIISPKPFSKPQEPVKAEEAEQPKTDYKKIGNPLPGMHIEADNEEEPEENDDDWDDDEDEAAQPPLPSRNVASGAPVQKEEPEQEEIAPSLPSRNSIPAPKQEEAPEQAPEEEIEEEAEEAAPQLPSRSSAAPPPPPRRATPEKKPKENPWATAEYDYDAAEDNELTFVENDKIINIEFVDDDWWLGELEKDGSKGLFPSNYVSLGN
With B3, in the test on Abp1 (1xFLAG), the “Ratio Swap/WT Flag” value came out at 1 and the “Flag (2 bands)” value came out at 221127. The “Interactions in Abp1” value in the test with Abp1 PPIs was 86.
